Test [1] can be described thus: Insulin Tolerance Test (ITT). It is filed as in vivo, mouse. As to conditions: for Area Under the Curve (AUC) in ITT: vs control. The procedure:
Animals. All animal procedures were approved by Institutional Animal Care and Use Committee (IACUC) at the University of California San Francisco and were conducted in accordance with the National Institutes of Health Guide for the Care and Use of laboratory Animals. C57BL/6NHsd (Envigo RMS, LLC) male littermates at 8-10 weeks of age, weighing ˜20-28 grams, were used in all the studies described. The mice were housed in a room that was temperature (22-25 C) and light controlled (12-h: 12-h light/dark cycle starting at 7 AM. The mice were fed with chow diet with 9% fat (PicoLab mouse Diet 20 (#5058), Lab Supply, Fortworth Texas, USA) for the duration of housing at the UCSF animal care facility.
1. mAb administered as a single dose, 15 hours prior to GTT and 21 hours prior to ITT. 2. mAb administered as a double dose, 15 hours prior to GTT and 21 hours prior to ITT plus a second mAb dose 2 hours prior to GTT and ITT. 3. mAb as a single dose 6 hours prior to GTT and ITT. 4. mAb single dose 2 hours prior to GTT and ITT.
Extendin 9-39 Peptide (MedChemExpress, Cat. No.: HY-P0264) were dosed at 1.0 or 0.23 mg/kg at three different administration regimen groups. 1. Extendin administered as a single dose, 21 hours prior to ITT. 2. Extendin administered as a double dose, 21 hours prior to ITT plus a second Extendin dose 2 hours prior to ITT. 3. mAb as a single dose 6 hours prior to ITT.
An Insulin Tolerance Test (ITT) was conducted to assess two different anti-GLP1 mAbs (agonist and antagonist) effect on insulin sensitivity following acute insulin administration. 8 or 10-week old male mice were fasted for 6 hours and body weight was recorded before and after fasting. To avoid circadian variations in mouse blood glucose levels this testing was performed at fixed times. Blood samples were collected by tail nick and baseline glucose was measured prior to insulin injection. Mice were injected, i.p., with a single bolus (0.75 U/Kg body weight) of human insulin (Novolin, Novo Nordisk) and blood glucose levels were measured at 15, 30, 45, 60 and 120 minutes after insulin injection. Blood glucose levels were monitored using a OneTouch Ultra 2 glucose monitor (LifeScan, Inc.).

The subject of another test is CHO-parent cells. In words: Flow cytometry binding assay on CHO-parent cells (background binding). More on the design: species or system Chinese Hamster. The protocol:
GLP-1R IgG clones were tested in a binding assay coupled to flow cytometry analysis as follows: FLAG-GLP-1R-GFP expressing CHO cells (CHO-GLP-1R) and CHO-parent cells were incubated with 100 nM IgG for 1 h on ice, washed three times and incubated with Alexa 647 conjugated goat-anti-human antibody (1:200) (Jackson ImmunoResearch Laboratories, 109-605-044) for 30 min on ice, followed by three washes, centrifuging to pellet the cells between each washing step. All incubations and washes were in buffer containing PBS+1% BSA. For titrations, IgG was serially diluted 1:3 starting from 100 nM down to 0.046 nM. Cells were analyzed by flow cytometry and hits (a hit is an IgG that specifically binds to CHO-GLP-1R) were identified by measuring the GFP signal against the Alexa 647 signal. Flow cytometry data of binding assays with 100 nM IgG are presented as dot plots. Analyses of binding assays with IgG titrations are presented as binding curves plotting IgG concentrations against MFI (mean fluorescence intensity).
Background: A flow cytometer gives signals particle by particle.

Changes are numbered by the printed parent chain.

On to Exendin 9-39 [reference compound], for which the “Area Under the Curve (AUC) in ITT” value in test [1] (19+2 hour, Exendin 0.23 mg/kg) is “no significant difference”; in test [1] (19+2 hour, GLP1R-3 20 mg/kg, Exendin 1 mg/kg), “significant (p<0.0001)”; in test [1] (single 6 hour treatment, GLP1R-3 20 mg/kg, Exendin 1.0 and 0.23 mg/kg) it was “no significant difference”. Also, the “blood glucose after insulin challenge” value in test [1] (19+2 hours dosing regimen, C57BL/6NHsd mice) is given as “significantly stabilizes a higher blood glucose”.

B1: GLP1R221-034: GLP1R-221 variant, optimized from GLP1R-3 (antibody, V domains shown)
VH: QVQLVESGGGVVQPGRSLRLSCAASGFPFSNYGMHWVRQAPGKGLEWVAVISHDRSNKYYADSVKGRFTISRDNSKNTLYLQMNSLRAEDTAVYYCAKHMSMQEGAVTGEGQAVKEFIAWLVKGRVRADLVGDAFDVWGQGTLVTVSS
VL: QSVLTQPPSVSAAPGQKVTISCSGSSSNIGNNPVSWYQQLPGTAPKLLIYENDNRPSGIPDRFSGSKSGTSATLGITGLQTGDEADYYCATWDRGLSTGVFGGGTKLTVL
In the case of B1, the “Median RL1-H of Parent Singlets” value in the test on CHO-parent cells (Table 6C, GLP1R-221 variants) is 314. The “Bmax CHO Parent” value in the test with CHO-parent cells (Table 6E, IgG titration) came out at 279.8.

B2: GLP1R222-073: GLP1R-222 variant, optimized from GLP1R-3 (antibody, V domains shown)
VH: B1 VH with P28T, S30R, N31D, V50F, S52R, H53Y, R55E, S56I, V114A, K123G
VL: B1 VL with S26G, P33D, E51D, D53N, N54K, P56A, A90G, L96P, S97N
B2: the “Median RL1-H of Parent Singlets” value in the test with CHO-parent cells (Table 6D, GLP1R-222 variants) came to 229. For the same molecule, in the test on CHO-parent cells (Table 6F, IgG titration), the “Bmax CHO Parent” value worked out at 228.4.

B3: GLP1R222-056: GLP1R-222 variant, optimized from GLP1R-3 (antibody, V domains shown)
VH: B1 VH with N31S, G33A, H53Y, E110Y, V114A, R125F
VL: QSVLTQPPSVSAAPGQKVTISCSGSSSNIGSNYISWYQQLPGTAPKLLIYDNDKRPAGIPDRFSGSKSGTSATLGITGLQTGDEADYYCGTWDTSLSVGEFGGGTKLTVL
Take B3: the “Median RL1-H of Parent Singlets” value in the test with CHO-parent cells (Table 6D, GLP1R-222 variants) was found to be 230. In addition, the “Bmax CHO Parent” value in the test with CHO-parent cells (Table 6F, IgG titration) is 237.5.

B4: GLP1R222-090: GLP1R-222 variant, optimized from GLP1R-3 (antibody, V domains shown)
VH: B1 VH with P28S, N31D, M34I, V50L, H53Y, D54E, R55G, G111K, V114A
VL: B1 VL with G30A, N31D, P33Y, E51D, D53N, N54K, P56A, R94N, G95R, T98A
As to B4, the “Median RL1-H of Parent Singlets” value in the test with CHO-parent cells (Table 6D, GLP1R-222 variants) is recorded as 432. The “Bmax CHO Parent” value in the test with CHO-parent cells (Table 6F, IgG titration) is recorded as 413.4.

B5: GLP1R222-023: GLP1R-222 variant, optimized from GLP1R-3 (antibody, V domains shown)
VH: B1 VH with P28S, N31D, V50F, H53Y, R55A, S56N, G111W, V114A
VL: B1 VL with P33D, D53T, N54K, A90G, R94A
Turning to B5, the “Median RL1-H of Parent Singlets” value with CHO-parent cells (Table 6D, GLP1R-222 variants) is on record as 310. Also, in the test with CHO-parent cells (Table 6F, IgG titration), the “Bmax CHO Parent” value was 237.9 and the EC50 (commonly the concentration at which the effect is half-maximal) came to 89.4 nM.

B6: GLP1R221-009: GLP1R-221 variant, optimized from GLP1R-3 (antibody, V domains shown)
VH: B1 VH with P28I, H53D, D54E, R55G, E110A, V114A
VL: B3 VL with S31N, N32Q, I34V, N52D, D53H, A57S
With B6, the “Median RL1-H of Parent Singlets” value in the test on CHO-parent cells (Table 6C, GLP1R-221 variants) turned out to be 197. Besides, the “Bmax CHO Parent” value with CHO-parent cells (Table 6E, IgG titration) is listed as 267.4.

B7: GLP1R222-014: GLP1R-222 variant, optimized from GLP1R-3 (antibody, V domains shown)
VH: B1 VH with P28A, A49S, V50F, H53Y, R55E, S85N, G111W, V114A
VL: B3 VL with S31N, N32H, Y33D, I34V, D53N, P56H, A57S, V98A, E100V
On to B7, for which the “Median RL1-H of Parent Singlets” value with CHO-parent cells (Table 6D, GLP1R-222 variants) was 299. The “Bmax CHO Parent” value in the test with CHO-parent cells (Table 6F, IgG titration) stood at 336.4.

B8: GLP1R221-075: GLP1R-221 variant, optimized from GLP1R-3 (antibody, V domains shown)
VH: B1 VH with P28T, G33P, H53Y, R55E, S56T, V114A, R125I
VL: B3 VL with S26G, S31N, Y33D, I34V, V98N, G99Y, E100V
On to B8, for which, in the test with CHO-parent cells (Table 6C, GLP1R-221 variants), the “Median RL1-H of Parent Singlets” value was 206. Also, the “Bmax CHO Parent” value with CHO-parent cells (Table 6E, IgG titration) is 234.

B9: GLP1R222-012: GLP1R-222 variant, optimized from GLP1R-3 (antibody, V domains shown)
VH: B1 VH with P28T, S30N, H53D, D54E, R55G, E110V, V114A
VL: B3 VL with S31N, Y33D, I34V, N52D, A57S
Regarding B9, the “Median RL1-H of Parent Singlets” value with CHO-parent cells (Table 6D, GLP1R-222 variants) stood at 290.5. Also, in the test on CHO-parent cells (Table 6F, IgG titration), the “Bmax CHO Parent” value amounted to 340.6.

B10: GLP1R222-082: GLP1R-222 variant, optimized from GLP1R-3 (antibody, V domains shown)
VH: B1 VH with P28T, N31A, G33S, V50L, H53Y, R55A, S56T, G111F, V114A
VL: B3 VL with N32K, I34V, D53N, A57S, T94I, L96P, V98A, G99W, E100V
For B10, in the test with CHO-parent cells (Table 6D, GLP1R-222 variants), the “Median RL1-H of Parent Singlets” value was determined as 315. The “Bmax CHO Parent” value with CHO-parent cells (Table 6F, IgG titration) is 305.

B11: GLP1R221-017: GLP1R-221 variant, optimized from GLP1R-3 (antibody, V domains shown)
VH: B1 VH with P28T, N31D, M34V, V50F, H53Y, R55E, G111Y, V114A
VL: B1 VL with N32T, P33Y, E51D, N52D, D53Y, N54K, R94A, G95T, S97N
Regarding B11, the “Median RL1-H of Parent Singlets” value with CHO-parent cells (Table 6C, GLP1R-221 variants) is given as 162. In the test with CHO-parent cells (Table 6E, IgG titration), the “Bmax CHO Parent” value was determined as 228.7.

B12: GLP1R222-081: GLP1R-222 variant, optimized from GLP1R-3 (antibody, V domains shown)
VH: B1 VH with P28T, S30D, G33A, M34L, V50L, H53Y, R55A, S56G, V114A, R125F
VL: B3 VL with N32D, I34V, D53N, P56S, A57S, T94E, S97R, V98S, G99W, E100V
With B12, in the test with CHO-parent cells (Table 6D, GLP1R-222 variants), the “Median RL1-H of Parent Singlets” value was 260. Besides, in the test on CHO-parent cells (Table 6F, IgG titration), the “Bmax CHO Parent” value was found to be 243.4.

B13: GLP1R222-052: GLP1R-222 variant, optimized from GLP1R-3 (antibody, V domains shown)
VH: B1 VH with P28T, S30N, G33P, H53Y, R55E, E110G, V114A
VL: B1 VL with N31K, N32R, P33S, E51D, D53N, N54K, P56A, A90V, G95S, T98A
As for B13, the “Median RL1-H of Parent Singlets” value in the test with CHO-parent cells (Table 6D, GLP1R-222 variants) was 27565.5. Also, the “Bmax CHO Parent” value in the test on CHO-parent cells (Table 6F, IgG titration) was found to be 47529.

Values taken from patent publication US12391762B2, “Methods and compositions relating to GLP1R variants” (Twist Bioscience Corporation, priority 2020, dated 2025).
